The source of these data is patent publication US20210206859A1 (DRAGONFLY THERAPEUTICS, published 2021).

First the molecules themselves.
T1: B7-H3 expressed on human cancer cell lines (786-O, BT-474, HCC1954) (human, UniProt Q5ZPR3 29-534)
T1 construct: The assay used B7-H3 expressed endogenously on the cell lines; also called CD276; cell expressed B7-H3
T1 sequence: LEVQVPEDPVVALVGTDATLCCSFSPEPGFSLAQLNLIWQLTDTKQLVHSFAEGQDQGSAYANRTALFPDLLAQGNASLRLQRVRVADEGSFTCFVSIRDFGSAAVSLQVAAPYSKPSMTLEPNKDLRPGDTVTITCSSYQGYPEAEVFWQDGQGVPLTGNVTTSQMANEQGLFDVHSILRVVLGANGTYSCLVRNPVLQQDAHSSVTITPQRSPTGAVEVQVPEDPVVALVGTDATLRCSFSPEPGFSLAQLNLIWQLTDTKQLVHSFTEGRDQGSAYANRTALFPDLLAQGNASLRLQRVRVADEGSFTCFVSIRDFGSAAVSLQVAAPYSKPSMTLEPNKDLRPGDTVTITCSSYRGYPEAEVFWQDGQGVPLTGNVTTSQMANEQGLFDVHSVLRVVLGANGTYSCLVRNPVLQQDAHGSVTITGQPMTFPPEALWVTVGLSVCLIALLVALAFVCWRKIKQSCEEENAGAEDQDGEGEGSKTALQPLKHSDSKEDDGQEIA

B1: huAb13v1 (AbbVie Inc.) parental monoclonal antibody (antibody, V domains shown)
VH: EVQLQESGPGLVKPSETLSLTCAVTGYSITSGYSWHWIRQFPGNGLEWMGYIHSSGSTNYNPSLKSRISISRDTSKNQFFLKLSSVTAADTAVYYCAGYDDYFEYWGQGTTVTVSS
VL: DIQMTQSPSSLSASVGDRVTITCKASQNVGFNVAWYQQKPGKSPKALIYSASYRYSGVPSRFSGSGSGTDFTLTISSLQPEDFAEYFCQQYNWYPFTFGQGTKLEIK
notes: also called parental mAb; B7-H3 parental monoclonal antibody
B2: huM30 (Daiichi Sankyo, Inc.) parental monoclonal antibody (antibody, V domains shown)
VH: QVQLVQSGAEVKKPGSSVKVSCKASGYTFTNYVMHWVRQAPGQGLEWMGYINPYNDDVKYNEKFKGRVTITADESTSTAYMELSSLRSEDTAVYYCARWGYYGSPLYYFDYWGQGTLVTVSS
VL: EIVLTQSPATLSLSPGERATLSCRASSRLIYMHWYQQKPGQAPRPLIYATSNLASGIPARFSGSGSGTDFTLTISSLEPEDFAVYYCQQWNSNPPTFGQGTKVEIK
notes: as for B1
B3: Enoblituzumab (MacroGenics, Inc.) parental monoclonal antibody (antibody, V domains shown)
VH: EVQLVESGGGLVQPGGSLRLSCAASGFTFSSFGMHWVRQAPGKGLEWVAYISSDSSAIYYADTVKGRFTISRDNAKNSLYLQMNSLRDEDTAVYYCGRGRENIYYGSRLDYWGQGTTVTVSS
VL: DIQLTQSPSFLSASVGDRVTITCKASQNVDTNVAWYQQKPGKAPKALIYSASYRYSGVPSRFSGSGSGTDFTLTISSLQPEDFATYYCQQYNNYPFTFGQGTKLEIKR
notes: as for B1
B4: A49MI-F3′-TriNKET-huAb13v1 (bispecific antibody, human IgG1, kappa)
scFv: DIQMTQSPSSLSASVGDRVTITCKASQNVGFNVAWYQQKPGKSPKALIYSASYRYSGVPSRFSGSGSGTDFTLTISSLQPEDFAEYFCQQYNWYPFTFGCGTKLEIKGGGGSGGGGSGGGGSGGGGSEVQLQESGPGLVKPSETLSLTCAVTGYSITSGYSWHWIRQFPGNCLEWMGYIHSSGSTNYNPSLKSRISISRDTSKNQFFLKLSSVTAADTAVYYCAGYDDYFEYWGQGTTVTVSSASDKTHTCPPCPAPELLGGPSVFLFPPKPKDTLMISRTPEVTCVVVDVSHEDPEVKFNWYVDGVEVHNAKTKPREEQYNSTYRVVSVLTVLHQDWLNGKEYKCKVSNKALPAPIEKTISKAKGQPREPRVYTLPPCRDELTKNQVSLTCLVKGFYPSDIAVEWESNGQPENNYKTTPPVLVSDGSFTLYSKLTVDKSRWQQGNVFSCSVMHEALHNHYTQKSLSLSPG
heavy: EVQLVESGGGLVKPGGSLRLSCAASGFTFSSYSMNWVRQAPGKGLEWVSSISSSSSYIYYADSVKGRFTISRDNAKNSLYLQMNSLRAEDTAVYYCARGAPIGAAAGWFDPWGQGTLVTVSSASTKGPSVFPLAPSSKSTSGGTAALGCLVKDYFPEPVTVSWNSGALTSGVHTFPAVLQSSGLYSLSSVVTVPSSSLGTQTYICNVNHKPSNTKVDKKVEPKSCDKTHTCPPCPAPELLGGPSVFLFPPKPKDTLMISRTPEVTCVVVDVSHEDPEVKFNWYVDGVEVHNAKTKPREEQYNSTYRVVSVLTVLHQDWLNGKEYKCKVSNKALPAPIEKTISKAKGQPREPQVCTLPPSRDELTENQVSLTCLVKGFYPSDIAVEWESNGQPENNYKTTPPVLDSDGSFFLYSWLTVDKSRWQQGNVFSCSVMHEALHNHYTQKSLSLSPG
light: DIQMTQSPSSVSASVGDRVTITCRASQGISSWLAWYQQKPGKAPKLLIYAASSLQSGVPSRFSGSGSGTDFTLTISSLQPEDFATYYCQQGVSFPRTFGGGTKVEIKRTVAAPSVFIFPPSDEQLKSGTASVVCLLNNFYPREAKVQWKVDNALQSGNSQESVTEQDSKDSTYSLSSTLTLSKADYEKHKVYACEVTHQGLSSPVTKSFNRGEC
notes: also called TriNKET bearing 13v1 B7-H3 targeting domain; B7-H3 TriNKET
B5: A49MI-F3′-TriNKET-huM30 (bispecific antibody, human IgG1, kappa)
scFv: EIVLTQSPATLSLSPGERATLSCRASSRLIYMHWYQQKPGQAPRPLIYATSNLASGIPARFSGSGSGTDFTLTISSLEPEDFAVYYCQQWNSNPPTFGCGTKVEIKGGGGSGGGGSGGGGSGGGGSQVQLVQSGAEVKKPGSSVKVSCKASGYTFTNYVMHWVRQAPGQCLEWMGYINPYNDDVKYNEKFKGRVTITADESTSTAYMELSSLRSEDTAVYYCARWGYYGSPLYYFDYWGQGTLVTVSSASDKTHTCPPCPAPELLGGPSVFLFPPKPKDTLMISRTPEVTCVVVDVSHEDPEVKFNWYVDGVEVHNAKTKPREEQYNSTYRVVSVLTVLHQDWLNGKEYKCKVSNKALPAPIEKTISKAKGQPREPRVYTLPPCRDELTKNQVSLTCLVKGFYPSDIAVEWESNGQPENNYKTTPPVLVSDGSFTLYSKLTVDKSRWQQGNVFSCSVMHEALHNHYTQKSLSLSPG
heavy: B4 heavy
light: B4 light
notes: also called TriNKET bearing M30 B7-H3 targeting domain; B7-H3 TriNKET
B6: A49MI-F3′-TriNKET-Enoblituzumab (bispecific antibody, human IgG1, kappa)
scFv: DIQLTQSPSFLSASVGDRVTITCKASQNVDTNVAWYQQKPGKAPKALIYSASYRYSGVPSRFSGSGSGTDFTLTISSLQPEDFATYYCQQYNNYPFTFGCGTKLEIKGGGGSGGGGSGGGGSGGGGSEVQLVESGGGLVQPGGSLRLSCAASGFTFSSFGMHWVRQAPGKCLEWVAYISSDSSAIYYADTVKGRFTISRDNAKNSLYLQMNSLRDEDTAVYYCGRGRENIYYGSRLDYWGQGTTVTVSSASDKTHTCPPCPAPELLGGPSVFLFPPKPKDTLMISRTPEVTCVVVDVSHEDPEVKFNWYVDGVEVHNAKTKPREEQYNSTYRVVSVLTVLHQDWLNGKEYKCKVSNKALPAPIEKTISKAKGQPREPRVYTLPPCRDELTKNQVSLTCLVKGFYPSDIAVEWESNGQPENNYKTTPPVLVSDGSFTLYSKLTVDKSRWQQGNVFSCSVMHEALHNHYTQKSLSLSPG
heavy: B4 heavy
light: B4 light
notes: also called TriNKET bearing Enoblituzumab B7-H3 targeting domain; B7-H3 TriNKET

The target in this experiment is T1, B7-H3 expressed on human cancer cell …. As to the kind of experiment: flow cytometry on 786-O, BT-474 and HCC1954 cells, anti-human IgG detection. On the procedure:
Human cancer cell lines expressing B7-H3 were used to assess tumor antigen binding of TriNKETs derived from B7-H3 targeting clones. Human breast cancer cell lines BT-474 and HCC1954 and renal cancer cell line 786-O were used to assess binding of TriNKETs to cell expressed B7-H3. Varying concentrations of either TriNKET or monoclonal antibody were allowed to bind cells for 20 minutes on ice, after which cells were washed and the amount of bound TriNKET/monoclonal antibody was measured using fluorophore conjugated anti-human IgG secondary antibody. Cells were then analyzed by flow cytometry and binding MFI to cell expressed B7-H3 was plotted against varying concentration.
For the molecule B1, the binding result is listed as “binds”.
Regarding B2, the binding result is recorded as “binds”.
Consider B3, for which the binding result is given as “binds”.
Regarding B4, the binding result is reported as “binds”.
In the case of B5, the binding result is listed as “binds”.
In the case of B6 it was “binds”.
